Values belong to the substance of their own block, whether it stands above or below them.
How the values were obtained:
[1] = system: BRCA1 deltaExon11;BARD1 full length (human;human); test: MST; conditions: Kd in Table S2, not in material, EMSA: 50 mM Tris pH 7.5, 150 mM NaCl, 0.02% NP40, 0.1 mg/ml BSA, 10% glycerol, 1 mM DTT, 8% sucrose, on ice 1 h, MST: 50 mM HEPES pH 7.5, 150 mM NaCl
[2] = molecular target: 6xHis-MBP–BARD1^425–777 (UniProt Q99728); test: MST; conditions: read at the highest titrant concentration (4000 nM 6xHis-MBP–BARD1ARD-BRCTs); 20 nM 5′ FAM-labelled nucleosomes; amplitude-normalised; mean of three …; parent: est. 10; read off a plot
[3] = molecular target: human Flag-BRCA1^ΔExon11:6xHis-FL BARD1 complex, P38398-5;Q99728; test: MST; conditions: read at the highest titrant concentration (2000 nM Flag-BRCA1ΔExon11:6xHis–BARD1); 20 nM 5′ FAM-labelled nucleosomes; amplitude-normalised; mean of three …; parent: est. 14; read off a plot
[4] = molecular target: unmodified mono-nucleosome (human) (UniProt P0C0S8); test: MST; 5' FAM-labelled nucleosomes (20 nM) with a dilution series of protein (0.122-4000 nM or 0.122-2000 nM), 50 mM HEPES pH 7.5, 150 mM NaCl, 0.1 mg/ml BSA, 10% glycerol, 0.02% NP40, 1 mM DTT, room temperature 30 min; one-site total binding fit

Substance: unmodified mono-nucleosome
fold affinity relative to BARD1 ARD-BRCTs (fold affinity vs BARD1 ARD-BRCTs) [1]: 2

response (Fnorm [1/1000]) [2]: 1.5
response (Fnorm [1/1000]) [3]: 5.7
Substance: unmodified mono-nucleosome (from UniProt P0C0S8;P33778;P68431;P62805) H2A:E61A; H2A:E91A; H2A:E92A; H2B:E105A

affinity relative to BARD1^ARD-BRCTs, fold [4]: 2 fold
Substance: human Flag-BRCA1^ΔExon11:6xHis-FL BARD1 complex (from UniProt P38398-5 1-721; Q99728 1-777)
